We go through 30 sequences from the supplement of paper PMC7877785.

± gives the uncertainty stated by the source.

The series can be described thus: self-splicing fitness, log relative to wild type (ln ratio); higher = more splicing; Tetrahymena group I intron in knt gene, E. coli kanamycin selection, DiMSum; sequences stand for … in CUCUCU…GGAGGGAAAAGUUAUCAGGCAUGCACCUGGUAGCUAGUCUUUAAACCAAUAGAUUGCAUCGGUUUAAAAGGCAAGACCGUCAAAUUGCGGGAAAGGGGUCAACAGCCGUUCAGUACCAAGUCUCAGGGGAAACUUUGAGAUGGCCUUGCAAAGGGUAUGGUAAUAAGCUGACGGACAUGGUCCUAACCACGCAGCCAAGUCCUAAGUCAACAGAUCUUCUGUUGAUAUGGAUGCAGUUCACAGACUAAAUGUCGGUCGGGGAAGAUGUAUUCUUCUCAUAAGAUAUAGUCGGACCUCUCCUUAAUGGGAGCUAGCGGAUGAAGUGAUGCAACACUGGAGCCGCUGGGAACUAAUUUGUAUGCGAAAGUAUAUUGAUUAGUUUUGGAGUACUCGUGGUCG
Put shortly:
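Fitness was computed with DiMSum as the error-weighted combination of replicate fold changes, kanamycin versus none, each normalised to wild type. The library randomised all eight intron nucleotides of the P1ex region, with the intron placed in the knt kanamycin-resistance gene on pET-22b(+) in E. coli BL21(DE3). Six replicate transformations were grown overnight at 37°C or 30°C on LB agar with or without 25 μg/mL kanamycin, plus 100 μg/mL carbenicillin, 50 μM IPTG and 0.2% rhamnose. Pooled colonies were amplicon-sequenced on an Illumina HiSeq 2500.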

As to CUUUAGCAAUAUUACGGUGG, the “self-splicing fitness (ln)” value is -1.96 ± 0.1 (30 °C) and -0.665 ± 0.11 (37 °C).

Regarding GUGAAGCAAUAUUACGCGCU, the “self-splicing fitness (ln)” value was -2.31 ± 0.16 (30 °C) and -1.47 ± 0.13 (37 °C).

Take GUGUAGCAAUAUUACGUGUU: the “self-splicing fitness (ln)” value is, setting by setting: (30 °C) -3.14 ± 0.17; (37 °C) -1.58 ± 0.12.

For the sequence AUGGAGCAAUAUUACGGGAC, the “self-splicing fitness (ln)” value is, setting by setting: (30 °C) -5.23 ± 0.41; (37 °C) -2.7 ± 0.25.

In the case of UCAUAGCAAUAUUACGCUUC, the “self-splicing fitness (ln)” value (37 °C) was -2.26 ± 0.23.

In the case of GCUGAGCAAUAUUACGUCUA, the “self-splicing fitness (ln)” value (30 °C) was -2.85 ± 0.22 and the “self-splicing fitness (ln)” value (37 °C) is -1.06 ± 0.14.

On to UGCUAGCAAUAUUACGAUUG, for which the “self-splicing fitness (ln)” value by setting is: (30 °C) -1.16 ± 0.13; (37 °C) -1.51 ± 0.14.

In the case of GUGGAGCAAUAUUACGGAGU, the “self-splicing fitness (ln)” value (30 °C) is -3.56 ± 0.31 and the “self-splicing fitness (ln)” value (37 °C) was -2.25 ± 0.29.

With AGGCAGCAAUAUUACGGGUG, the “self-splicing fitness (ln)” value is -3.64 ± 0.15 (30 °C) and -2.29 ± 0.12 (37 °C).

CGAGAGCAAUAUUACGCCGU: the “self-splicing fitness (ln)” value (30 °C) is -2.28 ± 0.49.

For the sequence ACAAAGCAAUAUUACGAUUU, the “self-splicing fitness (ln)” value (30 °C) is -0.651 ± 0.066 and the “self-splicing fitness (ln)” value (37 °C) is -0.399 ± 0.078.

AAUAAGCAAUAUUACGUGUG: the “self-splicing fitness (ln)” value reads like this: (30 °C) -1.05 ± 0.077; (37 °C) -1.57 ± 0.1.

Regarding UUUCAGCAAUAUUACGCAGG, the “self-splicing fitness (ln)” value reads like this: (30 °C) -2.53 ± 0.18; (37 °C) -1.65 ± 0.23.

With AAAAAGCAAUAUUACGUGUG, the “self-splicing fitness (ln)” value was -1.57 ± 0.049 (30 °C) and -1.27 ± 0.069 (37 °C).

On to AAAUAGCAAUAUUACGUCAA, for which the “self-splicing fitness (ln)” value by setting is: (30 °C) -2.07 ± 0.17; (37 °C) -1.8 ± 0.18.

Consider UUCUAGCAAUAUUACGCGUC, for which the “self-splicing fitness (ln)” value by setting is: (30 °C) -3.14 ± 0.39; (37 °C) -1.45 ± 0.25.

As to CGGGAGCAAUAUUACGAAUG, the “self-splicing fitness (ln)” value (30 °C) was -3.6 ± 0.21 and the “self-splicing fitness (ln)” value (37 °C) is -1.1 ± 0.15.

GUACAGCAAUAUUACGUCCU: the “self-splicing fitness (ln)” value by setting is: (30 °C) -1.4 ± 0.12; (37 °C) -0.91 ± 0.11.

As to GUUAAGCAAUAUUACGGGGU, the “self-splicing fitness (ln)” value is -2.73 ± 0.28 (30 °C) and -2.88 ± 0.35 (37 °C).

For the sequence CAUUAGCAAUAUUACGCCCA, the “self-splicing fitness (ln)” value was -2.43 ± 0.2 (30 °C) and -1.47 ± 0.24 (37 °C).

As for GUGUAGCAAUAUUACGAAAG, the “self-splicing fitness (ln)” value was -2.33 ± 0.24 (30 °C) and -1.4 ± 0.42 (37 °C).

Regarding ACGAAGCAAUAUUACGUUAC, the “self-splicing fitness (ln)” value (30 °C) was -3.77 ± 0.4 and the “self-splicing fitness (ln)” value (37 °C) was -1.17 ± 0.16.

UCCAAGCAAUAUUACGGUCC: the “self-splicing fitness (ln)” value (30 °C) was -2.7 ± 0.37 and the “self-splicing fitness (ln)” value (37 °C) is -1.04 ± 0.22.

For CGCAAGCAAUAUUACGACGA, the “self-splicing fitness (ln)” value (30 °C) was -1.48 ± 0.11 and the “self-splicing fitness (ln)” value (37 °C) was -0.997 ± 0.11.

For the sequence UGGAAGCAAUAUUACGACUG, the “self-splicing fitness (ln)” value (30 °C) is -1.26 ± 0.24 and the “self-splicing fitness (ln)” value (37 °C) is -0.683 ± 0.24.

Consider CUCGAGCAAUAUUACGUUGU, for which the “self-splicing fitness (ln)” value runs as follows: (30 °C) -4.17 ± 0.18; (37 °C) -2.07 ± 0.14.

For CAAUAGCAAUAUUACGCCCG, the “self-splicing fitness (ln)” value was -0.472 ± 0.17 (30 °C) and -0.0129 ± 0.23 (37 °C).

For the sequence UGCCAGCAAUAUUACGUAUC, the “self-splicing fitness (ln)” value by setting is: (30 °C) -3.22 ± 0.19; (37 °C) -3.05 ± 0.28.

On to CCGUAGCAAUAUUACGAACA, for which the “self-splicing fitness (ln)” value was -2.12 ± 0.2 (30 °C) and -2.26 ± 0.19 (37 °C).

For CAGUAGCAAUAUUACGGCAC, the “self-splicing fitness (ln)” value (30 °C) was -2.42 ± 0.21 and the “self-splicing fitness (ln)” value (37 °C) was -2.06 ± 0.25.
